Earlier results in article PMC5007751.

Biological target: RNA helicase A distal portion of helicase domain (Homo sapiens) (UniProt Q08211)
Sequence of UniProt Q08211 (Q08211 630-1020): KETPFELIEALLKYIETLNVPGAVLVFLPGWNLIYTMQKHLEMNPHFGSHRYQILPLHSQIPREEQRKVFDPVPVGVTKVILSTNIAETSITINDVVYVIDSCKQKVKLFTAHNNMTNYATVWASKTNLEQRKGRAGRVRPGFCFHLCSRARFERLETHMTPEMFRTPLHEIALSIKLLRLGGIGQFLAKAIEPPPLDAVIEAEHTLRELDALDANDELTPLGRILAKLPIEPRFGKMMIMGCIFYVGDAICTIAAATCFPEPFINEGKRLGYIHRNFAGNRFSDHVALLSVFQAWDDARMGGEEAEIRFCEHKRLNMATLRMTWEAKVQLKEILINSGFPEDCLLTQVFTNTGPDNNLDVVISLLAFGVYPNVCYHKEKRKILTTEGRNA

Kd: 9.48 µM
Substance: EWS/FLI (from UniProt Q01844)
